± gives the standard deviation of the averaged measurements.
system: Saccharomyces cerevisiae; experiment: protein stability index of tFT-peptide fusion (C-terminal peptide) (PSI (0-1 scale)); higher = more stable (slower turnover); details: genetic background: cdc34-1; temperature: 37 C
Experimental: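 MPS profiling in S. cerevisiae of the tFT-X12 degron library: putative degron peptides plus stable controls, 12 aa, fused to the C-terminus of a sfGFP-mCherry timer. Cells are FACS-sorted into 8 mCherry/sfGFP bins and deep-sequenced. PSI runs from 0 (unstable) to 1 (stable). Backgrounds are wild type, das1Δ and doa10Δ at 30 °C, and wild type, das1Δ, cdc34-1 and cdc53-1 at 37 °C; 2-3 technical replicates each.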
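Note: PSI is a weighted mean of sequencing reads over stability bins, variants kept only with over 10 reads, mCherry proximal and sfGFP distal, peptide attached via GGGS linker.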

Sequence	protein stability index
ISVSVVFFVLRF	0.27578 ± 0.00014
IYPPVSVTNLLV	0.6646 ± 0.0022
KAEKNSKKTSTE	0.685 ± 0.073
KALSSSYFGTRL	0.69 ± 0.025
KCEKGLYCCIAF	0.608 ± 0.055
KEKGVTKIRISS	0.6166 ± 0.0019
KEKKKTKHNKIG	0.587 ± 0.059
KIVNNTKKNKCH	0.638 ± 0.048
KLALVYLLIRGL	0.423 ± 0.015
KLLGVLFVLFPG	0.486 ± 0.012
KLRIVYAKVVCS	0.547 ± 0.044
KSEKTYTYQVIQ	0.682 ± 0.022
KVALWRRGVLAA	0.363 ± 0.028
LCGYVGVVVCLV	0.282 ± 0.012
LCIRHFRLLELL	0.5607 ± 0.0046
LCSYSTIPLRLY	0.619 ± 0.034
LCWASLLIVYLP	0.397 ± 0.014
LEYCLATYLSAC	0.3382 ± 0.00047
LFFSFLFLATRC	0.248 ± 0.012
LFFVCSGVVFSF	0.514 ± 0.052
LFGFLCVVMCCG	0.533 ± 0.014
LFLFFFLPPLLF	0.4247 ± 0.0027
LFLSFLLLYFRP	0.269 ± 0.019
LFMRGEDEMFSV	0.722 ± 0.052
LFPLFTLIFVHL	0.224 ± 0.016
LFTRSIRNLKSL	0.653 ± 0.057

Sequence	protein stability index
LFVFVISSSSFP	0.442 ± 0.0068
LFWCCVGLSVWR	0.367 ± 0.063
LFWPPCYLFFCL	0.446 ± 0.034
LFWTLSKYLIIC	0.284 ± 0.015
LGFFIFSFLILK	0.0638 ± 0.017
LGFHFFFTLIFF	0.284 ± 0.054
LGLLIFQWARVL	0.302 ± 0.015
LGVVVGGVRGVG	0.43 ± 0.04
LHRLRFTLVQVS	0.171 ± 0.0037
LIAPSACNLFLF	0.639 ± 0.04
LIRDLLYMAVLV	0.249 ± 0.015
LISRLVLVFVIP	0.3804 ± 0.00059
LIVCVKAITIVS	0.0266 ± 0.0046
LKCFLVLTFWFS	0.187 ± 0.045
LLHFVLYFLSCT	0.51 ± 0.057
LLHQSVHSHIPP	0.637 ± 0.0097
LLILSLLVLSSR	0.244 ± 0.022
LLLCVVLVSVFG	0.0374 ± 0.0057
LLLFSFAALANF	0.539 ± 0.059
LLLFTPFYLLLR	0.0987 ± 0.033
LLLPVFRFFFVN	0.468 ± 0.032
LLRFFPCFLGVN	0.653 ± 0.018
LLTAARAQLFAV	0.65 ± 0.0086
LLVSVVFVSRFF	0.378 ± 0.024
LLWALGLVLVEG	0.152 ± 0.033
LNLACCWFVRCR	0.311 ± 0.035

Sequence	protein stability index
LNSSVLRLRFFV	0.542 ± 0.027
LPLCGLLLFLFF	0.472 ± 0.024
LPLQPPPPVCLP	0.65583 ± 3.7e-05
LPPFGLFLFVFI	0.437 ± 0.034
LPPSTFLLHFLL	0.667 ± 0.046
LPTGLKTFLIAF	0.481 ± 0.0085
LPVPARPFPPSS	0.662 ± 0.027
LQSYVSRLVRLS	0.618 ± 0.082
LRFFLPFLLSLP	0.519 ± 0.043
LRFSLLRVGWLC	0.652 ± 0.053
LRGIVSVWILRA	0.501 ± 0.034
LRLLSLIPPLSC	0.494 ± 0.022
LRSPCALVLLLI	0.495 ± 0.022
LSAVISLRIQLS	0.595 ± 0.093
LSFFICSFFFVL	0.514 ± 0.045
LSFLSLIFSICY	0.43162 ± 0.0004
LSGDIPWSFVPV	0.743 ± 0.04
LSIGCRCLWGWF	0.718 ± 0.029
LSLCPVHRLLVL	0.558 ± 0.02
LSLSPRLPRLVA	0.613 ± 0.015
LSRFGSTCPSGL	0.72 ± 0.038
LSRHLILFIVIR	0.0962 ± 0.042
LSVYFSLSLCVS	0.363 ± 0.014
LTCTSTPMACRV	0.562 ± 0.067
LVCLPVGFFLMW	0.565 ± 0.084
LVCLVFVRSSLV	0.268 ± 0.0043

same assay, conditions: genetic background: cdc53-1; temperature: 37 C

Sequence	protein stability index
ISVSVVFFVLRF	0.369 ± 0.031
IYPPVSVTNLLV	0.723 ± 0.0079
KAEKNSKKTSTE	0.721 ± 0.013
KALSSSYFGTRL	0.745 ± 0.015
KCEKGLYCCIAF	0.68 ± 0.036
KEKGVTKIRISS	0.6861 ± 0.0021
KEKKKTKHNKIG	0.7521 ± 0.0072
KIVNNTKKNKCH	0.684 ± 0.0087
KLALVYLLIRGL	0.496 ± 0.028
KLLGVLFVLFPG	0.599 ± 0.034
KLRIVYAKVVCS	0.592 ± 0.025
KSEKTYTYQVIQ	0.749 ± 0.027
KVALWRRGVLAA	0.387 ± 0.013
LCGYVGVVVCLV	0.307 ± 0.027
LCIRHFRLLELL	0.72 ± 0.014
LCSYSTIPLRLY	0.726 ± 0.013
LCWASLLIVYLP	0.4614 ± 0.0036
LEYCLATYLSAC	0.435 ± 0.013
LFFSFLFLATRC	0.209 ± 0.018
LFFVCSGVVFSF	0.5482 ± 0.0011
LFGFLCVVMCCG	0.521 ± 0.0067
LFLFFFLPPLLF	0.407 ± 0.0056
LFLSFLLLYFRP	0.219 ± 0.022
LFMRGEDEMFSV	0.758 ± 0.024
LFPLFTLIFVHL	0.212 ± 0.017
LFTRSIRNLKSL	0.7269 ± 0.007

Sequence	protein stability index
LFVFVISSSSFP	0.539 ± 0.035
LFWCCVGLSVWR	0.474 ± 0.026
LFWPPCYLFFCL	0.508 ± 0.052
LFWTLSKYLIIC	0.42 ± 0.024
LGFFIFSFLILK	0.0569 ± 0.025
LGFHFFFTLIFF	0.274 ± 0.0087
LGLLIFQWARVL	0.5 ± 0.0084
LGVVVGGVRGVG	0.49 ± 0.0086
LHRLRFTLVQVS	0.196 ± 0.036
LIAPSACNLFLF	0.7535 ± 0.0061
LIRDLLYMAVLV	0.258 ± 0.016
LISRLVLVFVIP	0.443 ± 0.012
LIVCVKAITIVS	0.0452 ± 0.011
LKCFLVLTFWFS	0.231 ± 0.012
LLHFVLYFLSCT	0.548 ± 0.0012
LLHQSVHSHIPP	0.72 ± 0.013
LLILSLLVLSSR	0.348 ± 0.024
LLLCVVLVSVFG	0.0791 ± 0.044
LLLFSFAALANF	0.545 ± 0.017
LLLFTPFYLLLR	0.0767 ± 0.0017
LLLPVFRFFFVN	0.632 ± 0.065
LLRFFPCFLGVN	0.6962 ± 0.0039
LLTAARAQLFAV	0.704 ± 0.029
LLVSVVFVSRFF	0.465 ± 0.075
LLWALGLVLVEG	0.193 ± 0.026
LNLACCWFVRCR	0.339 ± 0.011

Sequence	protein stability index
LNSSVLRLRFFV	0.739 ± 0.063
LPLCGLLLFLFF	0.5394 ± 0.0043
LPLQPPPPVCLP	0.7163 ± 0.0065
LPPFGLFLFVFI	0.466 ± 0.0094
LPPSTFLLHFLL	0.714 ± 0.011
LPTGLKTFLIAF	0.485 ± 0.031
LPVPARPFPPSS	0.713 ± 0.0083
LQSYVSRLVRLS	0.745 ± 0.027
LRFFLPFLLSLP	0.596 ± 0.015
LRFSLLRVGWLC	0.681 ± 0.017
LRGIVSVWILRA	0.56 ± 0.0093
LRLLSLIPPLSC	0.535 ± 0.05
LRSPCALVLLLI	0.5317 ± 0.0035
LSAVISLRIQLS	0.603 ± 0.051
LSFFICSFFFVL	0.556 ± 0.014
LSFLSLIFSICY	0.449 ± 0.054
LSGDIPWSFVPV	0.766 ± 0.046
LSIGCRCLWGWF	0.7548 ± 0.004
LSLCPVHRLLVL	0.632 ± 0.032
LSLSPRLPRLVA	0.659 ± 0.018
LSRFGSTCPSGL	0.7696 ± 0.0062
LSRHLILFIVIR	0.0846 ± 0.02
LSVYFSLSLCVS	0.451 ± 0.0063
LTCTSTPMACRV	0.589 ± 0.021
LVCLPVGFFLMW	0.638 ± 0.0074
LVCLVFVRSSLV	0.571 ± 0.079

Source: the supplement of paper PMC10724198
